Reference: publication PMC4417367

Target: EGFP-GR C683A, L687-690A (rat) (UniProt P06536)
Experiment: co-IP

percent decrease of the HSP90/GR ratio against wild type EGFP-GR: 62.7%
Substance: heat shock protein 90 (natural protein)
